Our source for the response values is PMC2704394 (2009).

To fix the notation:
B1: full length S. pombe Pik1, wild type [S. pombe] / purified Cdc4 protein [S. pombe] (parent)
chain 1: MPSSNSGNELLLRFFESAHFTSQLCVAYLSRYPNNIGIHHFLCEKLATFPYEEIEFFIPQLIHLVLNKDSESVALEEFIISQCEQNTQCALITFWYLQAHMVDLGLQPHSSCFKICKRLYNRIQILVFMSSSSLIQSQQKISENVTPALILSGIMLGGVCVPELLKKAGPIAIAQGRKAPRQDPDESDVDVLRRLSTEPRYSLDVLRSSLNNSIVEQHSEVSLRLKAPELTRTHSYQSSATLSIDEQRRVLRSNYFQQEIQFLFALQDISIRLIIVPRQARLSSLRAELALLNNNLPADVNIPLLRSYHKEVSHKIVRIDPKEATILNSAERVPYLIMVEVLSGELSFEPQSKKNKAKVQKIVSHKNQRKRWFDLTDVDPYTNLQDSTDNDISESESEGGDLSMSPLIKGLVPDTLSLSKSFSSFGNVSLQVPSSHRDTDVVLLSGRHSDSDGNGALKRSKIYASEITARMRAAATMLSQLDAEGSRRPKAETERIKNSIILDMQRLEEERLNEPSIYPVSVDISCAEDLRFGKETQKAERKGDRDDPSAATFQEDWYAKKERIRKSSPYGHYPNWDLVSVIVKTGADLRQETFACQLIYAFQRVWLECKEKVWVRRMKILVTGDNSGLIETITNAISVHSIKKNLTKQLREAELAQGKIAGKNVVTLKDYFIKQFGDPNSSRYRQAQTNFLQSLVAYSIISYLLQLKDRHNGNVLIDSEGHIIHIDFGFLLTNTPGNVGFESAPFKLTADYLEILDDRFDEYRSLMKAAFKSVRKNADQIILLVEVMQNNSTMPCFRAGENTSAQLLQRFQLQLGDKECDDFVDLLIQKANCSVWTRLYDLFQNITNGIY
chain 2: MSTDDSPYKQAFSLFDRHGTGRIPKTSIGDLLRACGQNPTLAEITEIESTLPAEVDMEQFLQVLNRPNGFDMPGDPEEFVKGFQVFDKDATGMIGVGELRYVLTSLGEKLSNEEMDELLKGVPVKDGMVNYHDFVQMILAN

The variants in the first assay derive from B1. The assay can be described thus: sandwich ELISA. Particulars: with purified Cdc4 protein [S. pombe]; about 7 µg lysate protein; cells grown in the absence of thiamine; Cdc4-coated wells; parent: 0.02; read off a plot. Background: In an ELISA, binding on a coated surface is turned into a signal by an enzyme label.
Regarding chain 1 D709A, the response worked out at 0.083 Absorbance.

Staying with this assay, now noted: with purified Cdc4 protein [S. pombe]; about 14 µg lysate protein; cells grown in the absence of thiamine; Cdc4-coated wells; parent: 0.03; read off a plot.
In the case of chain 1 D709A, the response is 0.13 Absorbance.

The same assay, now with this note: with purified Cdc4 protein [S. pombe]; about 28 µg lysate protein; cells grown in the absence of thiamine; Cdc4-coated wells; parent: 0.073; read off a plot.
Turning to chain 1 D709A, the response worked out at 0.21 Absorbance.

Still in this assay, the particulars now being: with purified Cdc4 protein [S. pombe]; about 56 µg lysate protein (highest point of 2-fold serial dilution); cells grown in the absence of thiamine; Cdc4-coated wells; parent: 0.27; read off a plot.
With chain 1 D709A, the response amounted to 0.57 Absorbance.
